A word on the Kd: it is the free concentration of one partner at which half of the binding sites on the other are occupied at equilibrium, for simple one-to-one binding. As a reminder, the koff is the first-order rate constant of dissociation. Usually kon stands for the second-order rate constant of association.

For the test, the target named is T1, TRAIL (Recombinant Human TRAIL, BioLegend) (human, UniProt P50591 39-281).
T1 construct: TRAIL (TNFSF10), human, recombinant soluble protein from BioLegend; The catalogue number is printed for the ELISA; SPR names BioLegend only; also called TNFSF10; soluble TRAIL; source: bought: BioLegend (cat.no 752902)
T1 sequence (P50591 39-281): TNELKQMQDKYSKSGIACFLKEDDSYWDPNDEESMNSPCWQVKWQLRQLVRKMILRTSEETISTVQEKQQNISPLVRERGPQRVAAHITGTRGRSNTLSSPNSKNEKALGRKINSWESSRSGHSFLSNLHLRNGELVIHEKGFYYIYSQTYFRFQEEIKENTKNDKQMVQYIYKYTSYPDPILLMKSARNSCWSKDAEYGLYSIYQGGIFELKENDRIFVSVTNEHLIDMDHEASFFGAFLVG
As to the kind of experiment: SPR; Biacore T100; gpUL4-V5 amine-coupled to a CM5 chip (5000RU), control surface soluble UL141 subtracted; TRAIL or TNFα flowed over (100 nM; kinetics from 3.125, 6.25, 12.5, 25 and 50 nM TRAIL, 1:1 binding fit); 10 mM HEPES, 150 mM NaCl, 0.005% TWEEN-20, pH 7.4. The note with it: both partners purified.

B1: gpUL4-V5 (HCMV strain Merlin UL4 gene product with C-terminal V5/avitag/6his epitope tag) (natural protein)
chain: FCIFVSCSISTTTAPVEWKSPDRQIPMNITCANYSGTVNGNVTFRGLQNKTEDFLHWLLGWGHKSICSFFPKLQGNKEQHYMYGITNLTYNCTYDRLTLLNLTTENSGKYYFKREDVNSTFYYSCYNLTVT
modifications: N-linked and O-linked glycosylation on the secreted form (eight consensus N-linked sites; positions not given)
notes: the secreted form from the supernatant was used; Secreted glycoprotein; The tag is V5/avitag/6his in this order at the C-terminus; also called UL4 protein; not shown: V5, C-terminal, kept
For the molecule B1, the Kd turned out to be 0.234 nM, the koff is 0.0002 s⁻¹ and the kon was 867000 M⁻¹ s⁻¹.

Source of the values: article PMC10710050, “HCMV-secreted glycoprotein gpUL4 inhibits TRAIL-mediated apoptosis and NK cell activation” (Proceedings of the National Academy of Sciences of the …, 2023).
